Experimental data reported in patent US20250340659A1 (PETMEDIX, published 2025).
Positions count from the first letter of the chain named.

B1: PMX154 (antibody, V domains shown)
VH: EVQLVESGGDLVKPEGSLRLSCVVSGFTFSGFDMSWVRQAPGKGLQWVAYISTDGRSTGYTDAVKGRFTISRDNVKNTLYLQMNSLRTEDTAVYYCAKETRHWGFDYWGQGTLVIVSS
VL: SYVLTQLSSVSVSLRQTAHITCGGDSIGRKNVYWHQQKLGRAPILIIYDDSSRPSGIPERFSGANSGNTATLTISGALAEDEAAYYCQVWDSSTSVFGGGTHLTVL
B2: PMX030 (antibody)
heavy: EVQLVESGGDLVKPGGSLRLSCVASGFTFSNYHMNWVRQAPGKGLQWVAYVVSGGSTTSYADAVKGRFTISRDNAKNTLYLQMNSLRAEDTAVYYCAKGTSSWGVPMDYWGHGTSLFVSSASTTAPSVFPLAPSCGSTSGSTVALACLVSGYFPEPVTVSWNSGSLTSGVHTFPSVLQSSGLYSLSSMVTVPSSRWPSETFTCNVAHPASKTKVDKPVPKRENGRVPRPPDCPKCPAPESLGGPSVFIFPPKPKDTLLIARTPEVTCVVVDLGREDPEVQISWFVDGKQMQTAKTQPREEQFNGTYRVVSVLPIGHQDWLKGKQFTCKVNHIGLPSPIERTISKARGQAHQPSVYVLPPSREELSKNTVSLTCLIKDFFPPDIDVEWQSNGQQEPESKYRTTPPQLDEDGSYFLYSKLSVDKSRWQRGDTFICAVMHEALHNHYTQKSLSHSPGK
VL: B1 VL with S8P, S13T, H19R, G28R, R29S, H35Y, R41Q, I44V, A84D
notes: also called PMX30
B3: PMX031 (antibody)
heavy: B2 heavy with S56T, S59T, S102T
VL: B1 VL with S8P, S13T, H19R, G28R, R29S, H35Y, Q37K, R41Q, I44V, A84D
notes: also called PMX31
B4: PMX155 (antibody, V domains shown)
VH: ELHLVESGGDLVKPAGSLRLSCVASGFTFSSFRMSWVRQSPGKGLQFVAGINSDGYNTQYRDDVKGRFTISRDNTEKTLYLQMNNLRVEDTAMYYCVKDQGSWGGNFDFWGQGTLVTVSS
VL: SYGLTQPPSVNVTLRETAHITCGGDSIGSKYVQWIQQIPGQAPVVIIYKDRNRPTGIPERFSGANSGNTATLTISGALAEDEADYYCQVGDSGTSVFGGGTHLTVL
B5: PMX156 (antibody, V domains shown)
VH: B4 VH with H3Q, S31N, S40A, N57S, F109Y
VL: B4 VL
B6: PMX026 (antibody, V domains shown)
VH: EVHLVESGGDLVKPGGSLRLSCVASGFTFSSYHMSWVRQAPGKGLQWVAFINAGEISTNYADAVKGRFTISRDNAKNILYLQMNSLRAEDTAVYYCASGHIWIRPFDYWGQGTLVTVSS
VL: SYVLTQLPSMSVTLRQTARITCEGDSIGRKRVNWYQQKLGQVPVLIIYDDDSRPSGIPERFSGANSGNTATLTISGALAEDEAEYYCQVWDSSNNWVFGEGTQLTVL
notes: also called PMX26
B7: PMX043 (antibody)
heavy: EVQLVESGGDLVKPEGSLRLSCVVSGFTFSSYDMSWVRQAPGKGLQWVAYITNDGRYTSYTDAVKGRFTISRDNAKNTLYLQMNSLRTEDTAIYYCAKHGSSWSRGRFAMDYWGQGTSLFVSSASTTAPSVFPLAPSCGSTSGSTVALACLVSGYFPEPVTVSWNSGSLTSGVHTFPSVLQSSGLYSLSSMVTVPSSRWPSETFTCNVAHPASKTKVDKPVPKRENGRVPRPPDCPKCPAPESLGGPSVFIFPPKPKDTLLIARTPEVTCVVVDLGREDPEVQISWFVDGKQMQTAKTQPREEQFNGTYRVVSVLPIGHQDWLKGKQFTCKVNHIGLPSPIERTISKARGQAHQPSVYVLPPSREELSKNTVSLTCLIKDFFPPDIDVEWQSNGQQEPESKYRTTPPQLDEDGSYFLYSKLSVDKSRWQRGDTFICAVMHEALHNHYTQKSLSHSPGK
VL: SYVLTQLPSKNVTLNQPAHITCGGDSIGTKSVHWYQQKLGQAPVLIIFYDSSRPTGIPERFSGANSGNTATLTISGALAEDEADYYCQVWDSNASVFGGGTHLTVL
notes: also called PMX43
B8: PMX044 (antibody)
heavy: EVQLVESGGDPVKPEGSQRLSCVVSGFTFSSYDMSWVRQAPGKGLQWVAYITSDGRSTSYTDAVKGRFTISRDNARNTLFLQMNSLRTEDTAVYYCARHSSSWSRGRFGMDYWGHGTSLFVSSASTTAPSVFPLAPSCGSTSGSTVALACLVSGYFPEPVTVSWNSGSLTSGVHTFPSVLQSSGLYSLSSMVTVPSSRWPSETFTCNVAHPASKTKVDKPVPKRENGRVPRPPDCPKCPAPESLGGPSVFIFPPKPKDTLLIARTPEVTCVVVDLGREDPEVQISWFVDGKQMQTAKTQPREEQFNGTYRVVSVLPIGHQDWLKGKQFTCKVNHIGLPSPIERTISKARGQAHQPSVYVLPPSREELSKNTVSLTCLIKDFFPPDIDVEWQSNGQQEPESKYRTTPPQLDEDGSYFLYSKLSVDKSRWQRGDTFICAVMHEALHNHYTQKSLSHSPGK
VL: B7 VL with N15K, S26N, T29S, F48Y, N93S, S95G
notes: also called PMX44
B9: PMX293 (antibody, V domains shown)
VH: EVRLLESGGDLVKPAGSLRLSCAVSGFTFSTYDMSWVRQAPGKGLQWVAYITYDGRTTSYTDTVKGRFTVSRDNAKNMLYLKMNSLRSEDAAVYYCAKAHRGWFFDHWGQGTLVTVSS
VL: SYVLTQLPSVSVTLRQTARITCGGDSIGSKNVYWYQQKLGQAPVLIIYDDTSRPSGIPERFSGANSGTTATLTISGALAEDEADYYCQVWDSSTGVFGGGTHLTVL
B10: PMX294 (antibody, V domains shown)
VH: EVQLVESGGDLVKPEGSLRLSCAVSGFTFSSNDMSWVRQAPGKGLQWVAYITYDGRSTSYTDIVKGRFTVSRDNAKNTLYLQMNSLRSEDAAVYYCAKAQRGWFFDYWGQGTLVTVSS
VL: B9 VL with T51D, F61I, T68N
B11: PMX035 (antibody, V domains shown)
VH: EVQLVESGGDLVKPGGSLRLSCVASGFTFSNFEMYWVRQAPGKGLEWVARIYKSGSTTYHSERVKGRFTISKDSATNMAFLQMNSLRAEDTAVYYCTSASSTGWRFDYWGQGTLVTVSS
VL: B9 VL with S29R, Y33C, Y35F, T51N, T68N, V96I
notes: also called PMX35
B12: PMX040 (antibody, V domains shown)
VH: B11 VH with K53E, S56T, S61A, R63G, S74N, A75V, T76K, F80Y, T102S, G103S
VL: B9 VL with S29R, Y33C, Y35F, V44I, T51S, T68N, V96I
notes: also called PMX40

Target: T1, canine OX40L, full length membrane form, expressed on HEK293 cells (canine)
T1 chain: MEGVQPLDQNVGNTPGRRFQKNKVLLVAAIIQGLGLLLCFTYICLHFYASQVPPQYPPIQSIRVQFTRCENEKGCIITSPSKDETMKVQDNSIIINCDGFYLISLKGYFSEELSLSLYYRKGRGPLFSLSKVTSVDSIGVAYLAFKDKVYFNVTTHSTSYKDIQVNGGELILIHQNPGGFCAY
Assay: cell-based or functional assay

Row | Binder | % Signal Inhibition Average [%] | % Signal Inhibition Rep1 [%] | % Signal Inhibition Rep2 [%] | % Signal Inhibition Rep3 [%]
1 | B1 | 63.7 | 62.6 | 77.2 | 51.5
2 | B2 | 65.6 | 70.6 | 83.9 | 42.3
3 | B3 | 78.4 | 83.5 | 89.1 | 62.7
4 | B4 | 32.7 | 19.9 | 37.4 | 40.9
5 | B5 | 35.1 | 21.6 | 34.5 | 49.1
6 | B6 | 67.1 | 67.6 | 65.1 | 68.7
7 | B7 | 80.8 | 69.2 | 77.3 | 96.1
8 | B8 | 75.1 | 75.7 | 66 | 83.6
9 | B9 | 73.7 | 81.6 | 77.5 | 62.1
10 | B10 | 78.6 | 94 | 88.7 | 53
11 | B11 | 73.5 | 85.3 | 67.4 | 67.8
12 | B12 | 77.1 | 75.4 | 84.2 | 71.8

Target: T2, recombinant canine OX40L ECD-TNCc-HIS protein (canine)
T2 construct: also called Trimeric OX40L probe (HIS tag); trimeric canine OX40L
T2 chain: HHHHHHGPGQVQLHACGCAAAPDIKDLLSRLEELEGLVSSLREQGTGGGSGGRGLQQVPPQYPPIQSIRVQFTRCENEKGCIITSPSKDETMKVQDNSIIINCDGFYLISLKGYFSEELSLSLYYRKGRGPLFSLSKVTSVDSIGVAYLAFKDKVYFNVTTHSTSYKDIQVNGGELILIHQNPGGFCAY
Assay: SPR Koff (kd2)
In short: (§1)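 Purified antigen amine-coupled at low density to a CM5 chip; candidate antibodies injected as analyte over a concentration range. Kinetic curves fitted with a bivalent analyte model to give functional affinity and dissociation rates.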

Row | Binder | koff [s⁻¹]
13 | B1 | 6.94
14 | B2 | 0.000924
15 | B3 | 0.000606
16 | B4 | 0.000294
17 | B5 | 0.000238
18 | B6 | 0.00131
19 | B7 | 0.0022
20 | B8 | 0.0598
21 | B9 | 145
22 | B10 | 2.69
23 | B11 | 0.000498
24 | B12 | 0.436

Target: T1, canine OX40L, full length membrane …
Assay: flow cytometry
In short: (§2)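 CHO supernatants at 1, 5 or 10 μg/ml in PBS/3% FBS incubated 30′ on ice with cells surface-expressing canine OX40L. Bound antibody detected with fluorescent anti-canine Fc secondary (1:1000, 30 min, dark) and measured by flow cytometry, with parental WT HEK signal subtracted where stated.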

Row | Binder | GEO mean OX40L expressing HEK
25 | B1 | 789000
26 | B2 | 1.42e+06
27 | B3 | 1.55e+06
28 | B4 | 738000
29 | B5 | 680000
30 | B6 | 1.39e+06
31 | B7 | 1.28e+06
32 | B8 | 1.53e+06
33 | B9 | 602000
34 | B10 | 595000
35 | B11 | 1.41e+06
36 | B12 | 1.18e+06

Target: T2, recombinant canine OX40L ECD-TNCc-HIS …
Assay: SPR KD1, bivalent analyte model
In short: as §1

Row | Binder | Kd [nM]
37 | B1 | 15.6
38 | B2 | 114
39 | B3 | 154
40 | B4 | 90.6
41 | B5 | 1980
42 | B6 | 903
43 | B7 | 17
44 | B8 | 8.23
45 | B9 | 1
46 | B10 | 14.4
47 | B11 | 269
48 | B12 | 1.26

Target: T2, recombinant canine OX40L ECD-TNCc-HIS …
Assay: SPR Koff (kd1)
In short: as §1

Row | Binder | koff [s⁻¹]
49 | B1 | 0.00384
50 | B2 | 0.0283
51 | B3 | 0.0124
52 | B4 | 0.032
53 | B5 | 0.102
54 | B6 | 0.00191
55 | B7 | 0.00249
56 | B8 | 0.000171
57 | B9 | 0.000387
58 | B10 | 0.00155
59 | B11 | 0.0311
60 | B12 | 0.000748

Target: T1, canine OX40L, full length membrane …
Assay: flow cytometry, OX40L HEK minus WT HEK
In short: as §2

Row | Binder | GEO mean difference
61 | B1 | 781000
62 | B2 | 1.39e+06
63 | B3 | 1.51e+06
64 | B4 | 730000
65 | B5 | 672000
66 | B6 | 1.36e+06
67 | B7 | 1.25e+06
68 | B8 | 1.5e+06
69 | B9 | 598000
70 | B10 | 591000
71 | B11 | 1.38e+06
72 | B12 | 1.15e+06
